Assay results as given in patent US20210238288A1 (Genentech, published 2021).

Legend:
α4β7 integrin = target: T1, α4β7 integrin (human, UniProt P13612 34-970; P26010 20-723); test: method not stated
T1 construct: Heterodimer; also called alpha4beta7

αEβ7 integrin = target: T2, αEβ7 integrin (human, UniProt P38570 19-1124; P26010 20-723); test: method not stated
T2 construct: Heterodimer; also called alphaEbeta7; CD103 (αE subunit)
T2 sequence (P38570 19-1124, chain 1 of 2): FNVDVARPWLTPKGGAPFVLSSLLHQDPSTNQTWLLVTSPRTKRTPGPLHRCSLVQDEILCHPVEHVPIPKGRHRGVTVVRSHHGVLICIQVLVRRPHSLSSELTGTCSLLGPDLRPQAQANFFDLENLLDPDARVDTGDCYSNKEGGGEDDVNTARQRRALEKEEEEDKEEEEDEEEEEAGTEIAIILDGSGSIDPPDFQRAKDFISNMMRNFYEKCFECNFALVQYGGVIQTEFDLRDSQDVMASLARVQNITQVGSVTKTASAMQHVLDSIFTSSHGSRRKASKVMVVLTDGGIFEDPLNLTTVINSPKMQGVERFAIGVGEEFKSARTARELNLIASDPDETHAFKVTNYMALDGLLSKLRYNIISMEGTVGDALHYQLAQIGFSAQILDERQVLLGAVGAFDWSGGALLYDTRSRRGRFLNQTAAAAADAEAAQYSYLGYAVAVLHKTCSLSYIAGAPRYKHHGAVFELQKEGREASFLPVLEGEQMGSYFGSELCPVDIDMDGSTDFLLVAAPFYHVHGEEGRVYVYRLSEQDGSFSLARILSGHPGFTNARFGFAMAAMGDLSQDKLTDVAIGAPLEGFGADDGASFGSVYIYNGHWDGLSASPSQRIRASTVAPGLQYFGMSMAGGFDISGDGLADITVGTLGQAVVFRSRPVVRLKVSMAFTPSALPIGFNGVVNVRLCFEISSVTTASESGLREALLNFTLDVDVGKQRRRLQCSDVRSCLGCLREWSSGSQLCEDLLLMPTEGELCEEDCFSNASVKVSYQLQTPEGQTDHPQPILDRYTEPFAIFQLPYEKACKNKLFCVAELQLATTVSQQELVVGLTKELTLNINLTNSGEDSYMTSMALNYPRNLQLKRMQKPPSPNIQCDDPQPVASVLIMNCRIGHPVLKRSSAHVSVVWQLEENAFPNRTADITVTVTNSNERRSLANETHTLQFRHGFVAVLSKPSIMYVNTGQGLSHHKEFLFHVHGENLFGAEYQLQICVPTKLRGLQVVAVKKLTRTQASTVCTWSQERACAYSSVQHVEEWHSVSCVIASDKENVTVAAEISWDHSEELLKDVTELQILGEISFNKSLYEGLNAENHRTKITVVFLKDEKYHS
T2 sequence (P26010 20-723, chain 2 of 2): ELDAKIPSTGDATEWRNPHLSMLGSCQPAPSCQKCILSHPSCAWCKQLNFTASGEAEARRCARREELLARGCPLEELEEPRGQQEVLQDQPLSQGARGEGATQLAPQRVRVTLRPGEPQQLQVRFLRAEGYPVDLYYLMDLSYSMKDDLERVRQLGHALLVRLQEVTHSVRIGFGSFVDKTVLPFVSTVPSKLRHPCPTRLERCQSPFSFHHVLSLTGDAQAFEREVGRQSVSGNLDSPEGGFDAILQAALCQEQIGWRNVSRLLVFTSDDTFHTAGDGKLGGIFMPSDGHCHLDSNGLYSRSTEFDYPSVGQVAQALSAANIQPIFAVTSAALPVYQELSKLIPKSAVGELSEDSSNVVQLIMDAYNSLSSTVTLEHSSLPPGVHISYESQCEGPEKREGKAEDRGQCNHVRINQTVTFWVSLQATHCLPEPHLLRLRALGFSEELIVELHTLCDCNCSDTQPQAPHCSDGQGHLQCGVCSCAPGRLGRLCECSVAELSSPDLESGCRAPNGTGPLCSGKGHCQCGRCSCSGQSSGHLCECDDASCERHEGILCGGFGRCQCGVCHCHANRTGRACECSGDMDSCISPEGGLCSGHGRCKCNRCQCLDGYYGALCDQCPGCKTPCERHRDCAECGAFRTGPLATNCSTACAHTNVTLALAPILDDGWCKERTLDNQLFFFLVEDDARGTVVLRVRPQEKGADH

- Kd (α4β7 integrin): ~0.116 nM
- Kd (αEβ7 integrin): ~1.8 nM
B1: rhuMAb Beta7 (etrolizumab) (antibody, V domains shown)
VH: EVQLVESGGGLVQPGGSLRLSCAASGFFITNNYWGWVRQAPGKGLEWVGYISYSGSTSYNPSLKSRFTISRDTSKNTFYLQMNSLRAEDTAVYYCARTGSSGYFDFWGQGTLVTVSS
VL: DIQMTQSPSSLSASVGDRVTITCRASESVDDLLHWYQQKPGKAPKLLIKYASQSISGVPSRFSGSGSGTDFTLTISSLQPEDFATYYCQQGNSLPNTFGQGTKVEIKR
